Laboratory results published in PMC8219041, “A transcriptional hub integrating gibberellin–brassinosteroid signals to promote seed germination in Arabidopsis”.

Assays:
[1] = biological target: T1, GST-BEE2 (Arabidopsis thaliana, UniProt Q93VJ4 1-304); test: EMSA; 1000x cold probe eliminated the shift; 10 mM Tris pH 7.5, 50 mM KCl, 5 mM MgCl2, 1 mM DTT, 2.5% glycerol, 0.5% NP-40, 50 ng poly(dI-dC), 25 fmol probe in 20 ul, room temperature, 45 min; 6% native PAGE; settings: protein: recombinant; tags: GST (N-term, pGEX4T1); chain copies: 2; label: 5' biotin; blunt
T1 sequence: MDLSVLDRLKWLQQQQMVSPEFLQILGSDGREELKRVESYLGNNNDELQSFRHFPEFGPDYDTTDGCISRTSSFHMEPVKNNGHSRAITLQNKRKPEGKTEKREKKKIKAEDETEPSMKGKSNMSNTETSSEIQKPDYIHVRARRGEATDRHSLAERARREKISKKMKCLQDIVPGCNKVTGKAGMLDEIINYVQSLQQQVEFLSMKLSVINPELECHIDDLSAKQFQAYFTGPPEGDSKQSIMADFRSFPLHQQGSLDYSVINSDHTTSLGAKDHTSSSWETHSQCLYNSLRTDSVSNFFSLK

[2] = biological target: T2, GST-HBI1 (Arabidopsis thaliana, UniProt Q9ZPW3 1-337); test: as above; settings: protein: recombinant; tags: GST (N-term, pGEX4T1); chain copies: 2; label: 5' biotin; blunt
T2 sequence: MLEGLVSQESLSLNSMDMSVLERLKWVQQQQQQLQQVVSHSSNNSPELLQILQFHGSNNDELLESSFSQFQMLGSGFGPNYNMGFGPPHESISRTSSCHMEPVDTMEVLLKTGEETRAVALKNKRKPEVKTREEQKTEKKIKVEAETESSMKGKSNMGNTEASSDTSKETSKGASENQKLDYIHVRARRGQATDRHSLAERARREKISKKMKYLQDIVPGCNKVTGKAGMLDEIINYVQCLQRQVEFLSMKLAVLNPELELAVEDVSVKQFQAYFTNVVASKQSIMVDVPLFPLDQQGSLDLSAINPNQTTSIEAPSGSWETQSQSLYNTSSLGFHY

B1: GASA6 promoter Probe 2 (dsDNA)
DNA 1: GTCTCCCATGTGAGTGCACATGGAGTTATG
DNA 2: CATAACTCCATGTGCACTCACATGGGAGAC
B1: binds [1]; binds [2].

B2: GASA6 promoter Probe 1 (dsDNA)
DNA 1: CAATTTTTAATCACAAATGCTATTTTATTGGACGACC
DNA 2: GGTCGTCCAATAAAATAGCATTTGTGATTAAAAATTG
B2: binds [1]; binds [2].
